Numbering of substitutions follows the chain as printed.
B1: ADI-25573 (antibody, V domains shown)
VH: EVQLVESGAEVKKPGASVKVSCKASGYTFTSYYMHWVRQAPGQGLEWMGIINPSGGSTSYAQKFQGRVTMTRDTSTSTVYMELSSLRSEDTAVYYCARGPYDSSGYCDYWGQGTLVTVSS
VL: SYELMQPPSVSVAPGKTARITCGGNNIGSKSVHWYQQKPGQAPVLVVYDDSDRPSGTPERFSGSNSGNTATLTISRVEAGDEADYYCQVWDSSSDQVFGGGTKVTVL
notes: full-length IgG
B2: ADI-14369 (antibody, V domains shown)
VH: QVQLVQSGAEVKKPGSSVKVSCKASGGTFSSNAISWVRQAPGQGLEWMGGIIPIFATANYAQNFQDRVTITADESTGTAYMELSSLRYEDTAVYYCAKSAIHSGYHGPARSGFYQNGMDVWGQGTTVTVSS
VL: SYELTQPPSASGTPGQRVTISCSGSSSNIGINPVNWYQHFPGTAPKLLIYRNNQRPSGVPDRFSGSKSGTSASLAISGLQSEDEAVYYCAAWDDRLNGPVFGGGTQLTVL
notes: full-length IgG; also called Ab 37
B3: ADI-14356 (antibody, V domains shown)
VH: QVQLQESGAGLLKPSETLSLTCAVYGGSFSGYYWSWIRQPPGKGLEWIGEINHSGSTNYNPSLKSRVTISVDTSKNQFSLKLSSVTAADTAVYYCARDQRIVVVGAATEPYYYYYGMDVWGQGTTVTVSS
VL: QPVLTQPPSVSVSPGQTARITCSGDALPKQYAYWYQQKPGQAPVLVIYKDSERPSGIPERFSGSSSGTTVTLTISGVQAEDEADYYCQSADSSGTYRVFGGGTKLTVL
notes: full-length IgG; also called Ab 24
B4: ADI-19503 (antibody, V domains shown)
VH: QVQLVQSGAEVKKPGASVKVSCKASGYTFTSYYMHWVRQAPGQGLEWMGIINPSGGSTSYAQKFQGRVTMTRDTSTSTVYMELSSLRSEDTAVYYCARDSLVNCSGGSCPGGPDYWGQGTLVTVSS
VL: SYVLTQPPSVSVSPGQTARITCSGDALPKKYAYWYQQKSGQAPVLVIYEDSKRPSGIPERFSGSSSGTMATLTISGAQVEDEADYYCYSTDSSGNHRVFGGGTKLTVL
notes: full-length IgG
B5: ADI-19497 (antibody, V domains shown)
VH: QVQLVQSGAEVKKPGASVKVSCKASGYTFTSYYMHWVRQAPGQGLEWMGIINPSGGSTSYAQKFQGRVTMTRDTSTSTVYMELSSLRSEDTAVYYCSRGYSYGYDYWGQGTLVTVSS
VL: NFMLTQPHSVSESPGKTVTISCTRSSGSIASNYVQWYQQRPGSSPTTVIYEDNQRPSGVPDRFSGSIDSSSNSASLTISGLKTEDEADYYCQSYDSSNWVFGGGTKLTVL
notes: full-length IgG
B6: ADI-25576 (antibody, V domains shown)
VH: EVQLVESGGGLVQPGGSLRLSCAASGFTFSSYWMHWVRQAPGKGLVWVSRINSDGSSTSYADSVKGRFTISRDNAKNTLYLQMNSLRAEDTAVYYCARGLYNWNHDYWGQGTLVTVSS
VL: B5 VL with W99V, L107V
notes: full-length IgG; also called Ab 460
B7: ADI-19478 (antibody, V domains shown)
VH: QVQLVESGPGVVKPSETLSLTCTVSGGPVSSRSYYWGWIRQPPGKGLEWIGSIYYSGSTYYNTSLKSRVTISVDTSKNQFSLKLSSVTAADTAVYYCAKLQYSTSGFDYWGQGTLVTVSS
VL: QPVLTQPPSVSEAPRQRVTISCSGSSSNIGNNAVSWYQQLPGKAPKLLIYYDDLVPSGVSDRFSGSKSGTSASLAISGLQSEDEADYYCAAWDDSLNGVVFGGGTKLTVL
notes: full-length IgG; also called Ab 180
B8: ADI-21054 (antibody, V domains shown)
VH: QVQLVESGGGVVQPGRSLRLSCAASGFSFSNYGMHWVRQAPGKGLEWVVGISFDGSYIFHGGSVTGRFNISRDNSKNTLYLQVNSVRAEDTAVYYCARDPQYYDDWSGYSGLLHYYLYMDVWGKGTTVTVSS
VL: DIQLTQSPSTLSASVGDRVTITCRASQSIGTSLAWYQQIPGKAPKLLIYRASSLESGVPSRFSGGGSGTQFTLTISSLQPDDFATYYCQQYNNYSPTFGQGTKLEIK
B9: ADI-21061 (antibody, V domains shown)
VH: QVQLVQSGAEVKKPGSSVKVSCKASGGTFSNYPISWVRQAPGHGLEWMGRVVPTVGLANYAQNLQGRVTITADTSTNTVYMELRSLRSEDTGLYYCARRAVVDTYAFDIWGQGTLVTVSS
VL: QSALIQPASVSGFPGQSITISCTGASSDVGGYNFVSWYQQHPGKAPKLIIYEVTKRPSGVSNRFSGSESGNTASLTISGLQAEDEADYYCSSFRYTSSIVYVFGSGTKVTVL
B10: ADI-21062 (antibody, V domains shown)
VH: EVQLLESGGGLVKPGGSLRLSCAASGFTFSDYDMIWVRQAPGKGLEWVSSISRGSDYIYYADSLKGRFTISRDNARNSVTLQMNSLRAGDTALYFCARAELLDSGGYYLYYFDHWGQGTLVTVSS
VL: DIRMTQSPSSLSASVGDRVTITCRASQIIASYVNWYQKKPGKAPKVLIYAASRLQNGVPSRFSGSGSGTEFTLTISSLQPEDFATYYCQQSYSTSFTFGQGTKVDIK
notes: also called Ab 310
B11: ADI-21055 (antibody, V domains shown)
VH: EVQLVESGGGVVQPGRSLRLSCVGSGFTFSRYGMQWVRQAPGKGLEWAAVIWNDGSNEHYADSVKGRFTISRDNSKNTMYLQMNSLRAEDTALYYCAREGEYSSSWSHWSYLDLWGRGTLVTVSS
VL: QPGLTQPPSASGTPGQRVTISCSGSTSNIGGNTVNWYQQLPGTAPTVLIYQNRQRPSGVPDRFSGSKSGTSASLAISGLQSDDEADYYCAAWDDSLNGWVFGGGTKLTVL
B12: ADI-41222 (antibody, V domains shown)
VH: QVTLKESGGGVVQPGRSQRLSCTASGFNFHNYAMHWVRQAPGKGLEWVAVISYDGSNKNFADSVKGRFTISRDNSKNTLNLQMNNLRAEDTAVYYCVRDIVRGSPLFDYWGQGTLVTVSS
VL: QPVLTQPPSLSVAPGQTAWITCGGNNIGSKIVHWYQQKPGQAPVVVVYDDDDRPSGIPERFSGSNSGNTATLTIRRVEVGDEADYYCQVWDRSSDNYVFGTGTKVSVL
B13: ADI-41563 (antibody, V domains shown)
VH: QVQLVESGPGLVKPSETLSLTCTVSDDSITNNFWTWIRQPPGKGLEWIGYIYYSGSTNYNPSLKSRITMSVDLSKNQFSLKLSSVTAADTAVYYCARLTSGGVDYWGQGTLVTVSS
VL: QSVLTQPPSLSGAPGQRVTISCTGSSSNIGADYHVHWYQQLPGTAPKLLIYQNTNRPSGVPDRFSASKSGTSVSLAITGLQAEDEADYYCQSYDSSLSAWVFGGGTKLTVL
B14: ADI-41232 (antibody, V domains shown)
VH: QVQLVQSGAEVKKPGASVKVSCKASGYTFTHYGISWVRQAPGQGLEWMAWISAYNGNTNYAQKLQDRVTVTTDTSTSTAYMELRSLRSDDTALYYCARDSMGGTTLFDYWGQGTLVTVSS
VL: DIVLTQTPLSLPVTLGQPASISCRSSQSLVYSDGNTYLNWFQQRPGQSPRRLIYKVSNRDSGVPDRFTGSGSGTDFTLKISRVEAEDVGVYYCMQGTHWPPMYTFGQGTKLEIK
B15: ADI-41249 (antibody, V domains shown)
VH: QVQLVQSGAEVKKPGESLKISCQVSRDTSTTYWIGWVRQMPGKGLEWMGIIFPGDSDTRYSPSFQGQVTISADKSIMTAYLQLTSLKASDTAMYYCATQALRGAFDIWGQGTMVTVSS
VL: DIRLTQSPSSLSASVGDRVTITCQASQDISNYLNWYQQKPGKAPKLLIYDASYLETGVPSRFSGSGSGTDFTFTISSLQPEDFATYYCQQYDDLLFTFGPGTKLEIK
B16: ADI-41344 (antibody, V domains shown)
VH: EVQLVESGGGLVKPGGSLRLSCAASGSSFSSYYMNWVRQAPGKGLEWVSSISSSSTYIDYADSVKGRFTISRDNAKNSLFLQMNSLRAEDTAVYYCARVSSPMIRGYYLDYWGQGTLVTVSS
VL: QPVLTQPPSVSGAPGQRVTISCTGSSSNIGAGYDVHWYQQLPGTAPKLVIHGNSNRPSGVPDRFSGSKSGTSASLAITGLQGEDEADYYCQSYDSSLSGSVFGGGTKLTVL
B17: ADI-41594 (antibody, V domains shown)
VH: EVQLVESGGGLVKPGGSLRLSCAASGFSFSSYYMNWVRQAPGKGLEWVSSISPSSSYTNYADSVKGRFTISRDNAKDSLYLQMNSLRAEDTAVYYCARDGLLGITIFGVVQDYWGQGTLVTVSS
VL: QSVVTQPPSVSGAPGQRVTISCTGSSSNIGAGYDVHWYQQLPGTAPKLLIYGNTNRPSGVPDRFSASKSGTSASLAITGLQAEDEADYYCQSYDSSLSVVFGGGTKLTVL
B18: ADI-36674 (antibody, V domains shown)
VH: EVQLLESGGGLVKPGGSLRLSCAASGFKFRSYSMNWVRQAPGKGLEWVSSISSSSSYVDYAGSLKGRFTISRDNAENSLYLQMNSLRAEDTAMYYCARAGSVPVAGTYNDYWGQGTLVTVSS
VL: QSVLTQPPSVSGAPGQRVTISCTGSSSNIGAGYDVHWYQHLPGTAPKLLIHGNNNRPAGVPDRFSGSKSGTSASLVITGLQADDEADYYCQSYDRSLSVLFGGGTKVTVL
B19: ADI-36670 (antibody, V domains shown)
VH: QVQLVQSGAEVKKPGSSVKVSCKASGGTFSTYTINWVRQAPGQGLEWMGRITPSLGVPLSAQKFQGRITISADKSTTTAYMELSSLGSEDTAVYYCASLNYYDTTDYYLGYSDSWGQGTLVTVSS
VL: DIVLTQTPATLSVSPGERATLSCRASHSVSNNLAWYQQKPGQAPRLLIYSASTRATGIPARFSGRGSGTEFTLTISSLQPEDFAVYYCQQYNNWPPEYTFGQGTKVDIK

target: T1, RSV postfusion F (postF), subtype A (respiratory syncytial virus subtype A, UniProt P03420 26-513); assay: BLI
T1 construct: also called Postfusion subtype A; F deltaFP

Binder	binding result
B1	no binding

target: T2, RSV prefusion F (preF), subtype B (respiratory syncytial virus subtype B); assay: BLI, IgG
T2 construct: also called Prefusion subtype B

Binder	Kd [nM]
B2	3.38
B3	13

target: T3, RSV postfusion F (postF), subtype B (respiratory syncytial virus subtype B); assay: BLI, IgG
T3 construct: also called Postfusion subtype B

Binder	Kd [nM]
B4	11.6
B1	48.6
B5	13.4
B6	23.9
B2	0.9
B3	4.98
B7	0.713

target: RSV prefusion F (preF), subtype A (respiratory syncytial virus, subtype A, UniProt P03420 26-513); assay: BLI, IgG

Binder	Kd [nM]
B8	0.185
B9	1.1
B10	1.24
B11	1.1

target: T4, RSV postfusion F (postF), subtype A (respiratory syncytial virus, subtype A, UniProt P03420 26-513); assay: BLI, IgG
T4 construct: also called F ΔFP; Postfusion subtype A

Binder	Kd [nM]
B8	0.372
B9	0.142
B10	0.236
B11	0.185

target: RSV prefusion F (preF), subtype B (respiratory syncytial virus, subtype B); assay: BLI, IgG

Binder	Kd [nM]
B8	0.139
B9	2.76
B10	0.827
B11	2.98

target: T5, RSV postfusion F (postF), subtype B (respiratory syncytial virus, subtype B); assay: BLI, IgG
T5 construct: also called F ΔFP; Postfusion subtype B

Binder	Kd [nM]
B8	0.306
B9	2.48
B10	0.417
B11	4.35

target: RSV F on RSV subtype A virus (RSV-A2) (Respiratory Syncytial Virus, subtype A, …, UniProt P03420 26-574); assay: cell-based or functional assay

Binder	Neutralization - RSV A2 IC50 (pM)	neut IC50 (ug/ml) subtype A (wright) [µg/mL]
B12	39.9	0.016
B13	139	0.032
B14	104	0.025
B15	51.7	0.006
B16	229	0.064
B17	208	0.041
B18	190	0.014
B19	141	0.008

Source: US20260258115A1 (MAPP BIOPHARMACEUTICAL, published 2026)
